{"source": "FireProtDB (doi:10.1006/jmbi.1995.0616)", "proteins": {"B1": {"name": "Subtilisin-chymotrypsin inhibitor-2A wild type, P01053 (protein)", "chain": "MSSVEKKPEGVNTGAGDRHNLKTEWPELVGKSVEEAKKVILQDKPEAQIIVLPVGTIVTMEYRIDRVRLFVDKLDNIAQVPRVG"}}, "conditions": "Hordeum vulgare; pH 6.25; 25 °C; GdnHCl; Fluorescence; MES 50 mM; reversible: yes; whole UniProt chain shown"}
{"protein": "B1", "values": [{"measurement": "denaturant m value", "value": 1.9, "unit": "kcal/mol/M"}, {"measurement": "denaturant midpoint (higher = more stable)", "value": 4, "unit": "M"}, {"measurement": "unfolding free energy", "value": 7.6, "unit": "kcal/mol"}]}
